Assay results taken from US20160129086A1.

Molecular target: CD20 on human lymphoma cells (Daudi, Jeko-1) (UniProt P11836)
Experiment: cell-based or functional assay

Chain of CD20 on human lymphoma cells (Daudi, Jeko-1) (P11836 whole entry): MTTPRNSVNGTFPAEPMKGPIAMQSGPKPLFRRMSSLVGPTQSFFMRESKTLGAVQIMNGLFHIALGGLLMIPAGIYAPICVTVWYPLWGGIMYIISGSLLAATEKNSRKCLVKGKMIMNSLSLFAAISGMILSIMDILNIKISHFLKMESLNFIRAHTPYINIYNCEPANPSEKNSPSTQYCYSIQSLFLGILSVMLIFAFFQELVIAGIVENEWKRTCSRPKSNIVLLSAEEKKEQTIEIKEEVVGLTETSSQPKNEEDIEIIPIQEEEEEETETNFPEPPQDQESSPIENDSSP

| EC50, in vitro proliferation of Jeko-1 cells [nM] | EC50, high-concentration response, in vitro proliferation of Jeko-1 cells [nM] | EC50, low-concentration response, in vitro proliferation of Jeko-1 cells [nM] | Substance |
| --- | --- | --- | --- |
| 1.5 | – | – | veltuzumab (antibody) |
| – | 0.85 | 0.00097 | 20-2b (from UniProt P01563 24-188) |
